The target of assay [1] is T1, tetravalent scaffoldin ScafCA(CBM)TF (SEQ ID No. 5).
T1 chain: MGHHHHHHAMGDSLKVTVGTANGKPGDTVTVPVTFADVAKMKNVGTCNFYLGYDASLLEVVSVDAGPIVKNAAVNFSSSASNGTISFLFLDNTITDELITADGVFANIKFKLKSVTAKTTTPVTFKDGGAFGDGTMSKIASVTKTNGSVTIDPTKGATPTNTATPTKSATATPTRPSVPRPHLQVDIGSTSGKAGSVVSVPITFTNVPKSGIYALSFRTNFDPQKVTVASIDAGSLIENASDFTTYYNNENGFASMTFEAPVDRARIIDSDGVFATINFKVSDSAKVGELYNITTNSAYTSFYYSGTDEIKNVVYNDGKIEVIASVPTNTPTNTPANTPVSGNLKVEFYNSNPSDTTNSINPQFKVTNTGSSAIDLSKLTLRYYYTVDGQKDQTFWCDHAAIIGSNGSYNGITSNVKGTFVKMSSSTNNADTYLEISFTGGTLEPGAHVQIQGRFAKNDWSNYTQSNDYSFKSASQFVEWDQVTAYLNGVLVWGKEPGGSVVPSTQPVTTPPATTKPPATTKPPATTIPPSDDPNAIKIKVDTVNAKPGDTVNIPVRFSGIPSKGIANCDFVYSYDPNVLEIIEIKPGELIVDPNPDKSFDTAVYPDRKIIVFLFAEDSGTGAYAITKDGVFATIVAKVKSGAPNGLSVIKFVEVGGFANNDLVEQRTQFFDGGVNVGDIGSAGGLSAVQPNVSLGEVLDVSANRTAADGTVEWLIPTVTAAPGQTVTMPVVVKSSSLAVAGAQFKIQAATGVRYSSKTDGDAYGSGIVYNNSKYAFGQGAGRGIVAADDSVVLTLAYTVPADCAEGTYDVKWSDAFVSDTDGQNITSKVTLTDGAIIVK
The experiment in a line: electrophoretic mobility on non-denaturing PAGE, equimolar enzymes and scaffoldin.

For assay [2], the target named is T2, C. thermocellum cohesin 3 from CipA (Clostridium thermocellum, UniProt Q06851 560-704).
T2 construct: domain: cohesin 3; also called cohesin T
T2 sequence: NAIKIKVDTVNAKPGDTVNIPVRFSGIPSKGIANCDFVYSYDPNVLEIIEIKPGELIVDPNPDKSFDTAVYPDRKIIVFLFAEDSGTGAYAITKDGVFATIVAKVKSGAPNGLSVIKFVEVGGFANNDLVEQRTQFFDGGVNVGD
The experiment in a line: affinity-based ELISA, cohesin-dockerin binding.

B1: Xyn11V-a (SEQ ID No. 3) (enzyme)
chain: MHHHHHHDVVITSNQTGTHGGYNFEYWKDTGNGTMVLKDGGAFSCEWSNINNILFRKGFKYDETKTHDQLGYITVTYSCNYQPNGNSYLGVYGWTSNPLVEYYIIESWGTWRPPGATPKGTITVDGGTYEIYETTRVNQPSIKGTATFQQYWSVRTSKRTSGTISVTEHFKAWERLGMKMGKMYEVALVVEGYQSSGKADVTSMTITVGNAPSTSSPPGPTPEPTPRSAFSKIEAEEYNSLKSSTIQTIGTSDGGSGIGYIESGDYLVFNKINFGNGANSFKARVASGADTPTNIQLRLGSPTGTLIGTLTVASTGGWNNYEEKSCSITNTTGQHDLYLVFSGPVNIDYFIFDSKGVNPTPTPTSTTTPTPKFIYGDVDGNGSVRINDAVLIRDYVLGKINEFPYEYGMLAADVDGNGSIKINDAVLVRDYVLGKIFLFPVEEKEELEHHHHHH
As to B1, the binding result in assay [1] is “binds”.

B2: Xyn-c-Lac (SEQ ID No. 1), chimeric bifunctional xylanase-dockerin-laccase (enzyme)
chain: MGSSHHHHHHKNADSYAKKPHISALNAPQLDQRYKNEFTIGAAVEPYQLQNEKDVQMLKRHFNSIVAENVMKPISIQPEEGKFNFEQADRIVKFAKANGMDIRFHTLVWHSQVPQWFFLDKEGKPMVNETDPVKREQNKQLLLKRLETHIKTIVERYKDDIKYWDVVNEVVGDDGKLRNSPWYQIAGIDYIKVAFQAARKYGGDNIKLYMNDYNTEVEPKRTALYNLVKQLKEEGVPIDGIGHQSHIQIGWPSEAEIEKTINMFAALGLDNQITELDVSMYGWPPRAYPTYDAIPKQKFLDQAARYDRLFKLYEKLSDKISNVTFWGIADNHTWLDSRADVYYDANGNVVVDPNAPYAKVEKGKGKDAPFVFGPDYKVKPAYWAIIDHKSAGENLYFQGTSPVIVYGDYNNDGNVDALDFAGLKKYIMAADHAYVKNLDVNLDNEVNAFDLAILKKYLLGMVSKLPSQDPNSVTGTVVELAPGIHAGFTGRAGGVSGEPYATLNLGDHVGDDPAAVAENRRRAALGFGISPDRVVWMNQVHGATAVTVTGSGQAGDVDAVVTPEAGLALAVLVADCLPLLVADAAAGVIGAAHAGRPGMAAGVVPALVAEMARHGARPERCVALLGPAICGRCYEVPRDLQDRVARTVPEARCTTAEGTPGLDIRAGVTAQLTNLGVTNITHDSRCTRESADLFSYRRDATTGRFAGYVWRVP
notes: Recombinant, expressed in E. coli, His-tagged; also called xylanase-tagged laccase; bifunctional xylanase-laccase
As to B2, the binding result in assay [2] is listed as “no binding”.

B3: t-48A (SEQ ID No. 4) (enzyme)
chain: MAHHHHHHAVESSSTGLGDLNGDGNINSSDLQALKRHLLGISPLTGEALLRADVNRSGKVDSTDYSVLKRYILRIITEVPGHDSAEVTVREIDPNTSSYDQAFLEQYEKIKDPASGYFREFNGLLVPYHSVETMIVEAPDHGHQTTSEAFSYYLWLEAYYGRVTGDWKPLHDAWESMETFIIPGTKDQPTNSAYNPNSPATYIPEQPNADGYPSPLMNNVPVGQDPLAQELSSTYGTNEIYGMHWLLDVDNVYGFGFCGDGTDDAPAYINTYQRGARESVWETIPHPSCDDFTHGGPNGYLDLFTDDQNYAKQWRYTNAPDADARAVQVMFWAHEWAKEQGKENEIAGLMDKASKMGDYLRYAMFDKYFKKIGNCVGATSCPGGQGKDSAHYLLSWYYSWGGSLDTSSAWAWRIGSSSSHQGYQNVLAAYALSQVPELQPDSPTGVQDWATSFDRQLEFLQWLQSAEGGIAGGATNSWKGSYDTPPTGLSQFYGMYYDWQPVWNDPPSNNWFGFQVWNMERVAQLYYVTGDARAEAILDKWVPWAIQHTDVDADNGGQNFQVPSDLEWSGQPDTWTGTYTGNPNLHVQVVSYSQDVGVTAALAKTLMYYAKRSGDTTALATAEGLLDALLAHRDSIGIATPEQPSWDRLDDPWDGSEGLYVPPGWSGTMPNGDRIEPGATFLSIRSFYKNDPLWPQVEAHLNDPQNVPAPIVERHRFWAQVEIATAFAAHDELFGAGAP
As for B3, in assay [1], the binding result is on record as “binds”.

B4: f-5A (SEQ ID No. 2) (enzyme)
chain: MAHHHHHHAPSPGTKLVPTWGDTNCDGVVNVADVVVLNRFLNDPTYSNITDQGKVNADVVDPQDKSGAAVDPAGVKLTVADSEAILKAIVELITLPQAVPGTQPGTGTPVERYGKVQVCGTQLCDEHGNPVQLRGMSTHGIQWFDHCLTDSSLDALAYDWKADIIRLSMYIQEDGYETNPRGFTDRMHQLIDMATARGLYVIVDWHILTPGDPHYNLDRAKTFFAEIAQRHASKTNVLYEIANEPNGVSWASIKSYAEEVIPVIRQRDPDSVIIVGTRGWSSLGVSEGSGPAEIAANPVNASNIMYAFHFYAASHRDNYLNALREASELFPVFVTEFGTETYTGDGANDFQMADRYIDLMAERKIGWTKWNYSDDFRSGAVFQPGTCASGGPWSGSSLKASGQWVRSKLQS
As for B4, the binding result in assay [1] is recorded as “binds”.

The values above are taken from patent US20190345459A1 (YEDA RESEARCH AND DEVELOPMENT, published 2019).
